Results: patent US7132258B1, “Nucleic acid encoding vitamin D receptor related polypeptide” (University of Massachusetts, priority 1998, dated 2006)

What was measured:
Format in all cases: binding
RXR (full-length hRXRα) = target: T1, RXR (full-length hRXRα) (Homo sapiens, UniProt P19793); test: Yeast two-hybrid interaction with RXR; conditions: β-galactosidase ONPG assay, 1 μM ligand or vehicle
T1 construct: RXR (full-length hRXRα); expressed in transfected cells; host or cells: Saccharomyces cerevisiae Y190
T1 sequence (P19793 1-462): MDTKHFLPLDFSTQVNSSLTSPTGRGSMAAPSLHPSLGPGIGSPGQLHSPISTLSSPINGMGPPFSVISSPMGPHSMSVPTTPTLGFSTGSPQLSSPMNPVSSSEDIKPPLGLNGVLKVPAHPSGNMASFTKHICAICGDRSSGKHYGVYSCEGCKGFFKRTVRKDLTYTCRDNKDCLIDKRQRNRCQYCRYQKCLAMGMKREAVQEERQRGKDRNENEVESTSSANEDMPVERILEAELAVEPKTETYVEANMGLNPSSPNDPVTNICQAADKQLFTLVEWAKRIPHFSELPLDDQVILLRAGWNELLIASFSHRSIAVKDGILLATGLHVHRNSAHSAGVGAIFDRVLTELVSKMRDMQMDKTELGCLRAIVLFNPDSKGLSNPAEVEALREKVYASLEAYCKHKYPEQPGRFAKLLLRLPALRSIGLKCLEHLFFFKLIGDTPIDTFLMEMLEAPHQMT
T1 sequence (Q9Y6Q9 401-1204 E704Q partner limits assumed): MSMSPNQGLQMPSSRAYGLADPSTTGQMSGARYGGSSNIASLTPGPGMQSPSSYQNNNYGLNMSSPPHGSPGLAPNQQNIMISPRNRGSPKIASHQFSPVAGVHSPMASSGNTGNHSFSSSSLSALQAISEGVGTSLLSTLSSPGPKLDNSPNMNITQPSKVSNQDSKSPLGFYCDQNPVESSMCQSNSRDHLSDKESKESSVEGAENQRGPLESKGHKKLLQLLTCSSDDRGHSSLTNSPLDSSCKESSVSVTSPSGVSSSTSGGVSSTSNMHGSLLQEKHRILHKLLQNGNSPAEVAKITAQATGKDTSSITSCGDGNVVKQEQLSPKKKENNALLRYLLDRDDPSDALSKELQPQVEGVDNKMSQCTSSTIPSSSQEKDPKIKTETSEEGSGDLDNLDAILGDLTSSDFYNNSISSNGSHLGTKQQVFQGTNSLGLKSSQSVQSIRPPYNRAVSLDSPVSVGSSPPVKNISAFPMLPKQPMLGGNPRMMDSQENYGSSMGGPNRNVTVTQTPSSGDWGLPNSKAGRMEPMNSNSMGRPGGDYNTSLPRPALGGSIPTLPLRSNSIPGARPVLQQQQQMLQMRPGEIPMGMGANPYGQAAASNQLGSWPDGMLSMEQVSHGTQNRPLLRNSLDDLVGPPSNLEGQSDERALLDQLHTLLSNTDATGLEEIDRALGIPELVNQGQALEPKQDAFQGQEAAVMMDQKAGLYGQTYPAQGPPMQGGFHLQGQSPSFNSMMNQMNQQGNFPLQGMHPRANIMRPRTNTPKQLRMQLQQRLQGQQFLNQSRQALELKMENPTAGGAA
Method: (§1) The protein—protein interactions between RAC3 and several steroid/nuclear receptors were analyzed by the yeast two-hybrid system. The original two-hybrid clone, RAC3.1 in pGAD10 vector, was retransformed together with yeast expression vectors for Gal4 DBD fusion of selected hormone receptor genes into Y190 cells. The receptors used include RAR (full-length hRARα), RXR (full-length hRXRα), VDR (LBD of human Vitamin D receptor), PPAR (LBD of mPPARα), TR (LBD) of hTRβ), COUP (LBD of COUP-TFI). Three independent colonies from each transformation were selected and analyzed for expression of […] activities by liquid ONPG assay (FIG. 6) after treatment with 1 μM of corresponding ligands (closed bars), or with equal concentration of vehicle alone (open bars). […] The ligands used in these experiments were atRA, VitD3 (1,25-dihydroxyvitamin D3), and Wy (Wy 14,642). […] In the absence of ligand, RAC3 can interact with RAR and PPAR.

TR (LBD) of hTRβ = target: T2, TR (LBD) of hTRβ (Homo sapiens, UniProt P10828); test: Yeast two-hybrid interaction with TR; conditions: β-galactosidase ONPG assay, 1 μM ligand or vehicle
T2 construct: TR (LBD) of hTRβ); expressed in transfected cells; host or cells: Saccharomyces cerevisiae Y190
T2 sequence (P10828 217-461 limits assumed): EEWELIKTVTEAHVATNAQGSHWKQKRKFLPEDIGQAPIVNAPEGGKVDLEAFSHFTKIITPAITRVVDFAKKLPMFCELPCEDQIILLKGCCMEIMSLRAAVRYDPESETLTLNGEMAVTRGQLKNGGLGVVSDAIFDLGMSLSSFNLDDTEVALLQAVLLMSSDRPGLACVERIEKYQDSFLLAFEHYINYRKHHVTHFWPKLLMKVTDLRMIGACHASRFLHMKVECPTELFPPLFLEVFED
T2 sequence (Q9Y6Q9 401-1204 E704Q partner limits assumed): T1 sequence (Q9Y6Q9 401-1204 E704Q partner limits assumed)
Method: as §1

CBP = test: Far-Western analysis of interaction with GST-CBP fusions; conditions: 35S-labeled full-length RAC3
Method: GST fusion proteins were overexpressed and purified from DH5α cells on glutathione agarose beads. The fusion proteins were separated on denaturing protein gels (SDS-PAGE) and electroblotted onto nitrocellulose filters in a transfer buffer (25 mM Tris-HCl, pH 8.3; 192 mM glycine; 0.01% SDS). After denaturation in 6 M guanidine hydrochloride (GnHCl), the proteins were renatured by stepwise dilution of GnHCl to 0.187 M in HB buffer (25 mM Hepes, pH 7.7; 25 mM NaCl; 5 mM MgC12; 1 mM DTT). The filters were then saturated with blocking buffer (5% non-fat milk, then 1% milk in HB buffer plus 0.05% NP40) at 4° C. overnight. In vitro translated 35S-labeled proteins were generated in reticulocyte lysate (Promega) and were diluted into a hybridization buffer (20 mM Hepes, pH 7.7; 75 mM KCl; 0.1 mM EDTA; 2.5 mM MgC12; 0.05% NP40; 1% milk; 1 mM DTT). […] The bound 35S-labeled proteins were detected by autoradiography.
Since SRC-1 can interact with the general transcriptional coactivator CBP and p300 (Yao, T. P., et al. (1996) Proc Natl Acad Sci USA 93, 10626–31.), it was determined whether RAC3 can also interact with CBP by far-Western analyses. Serial GST-CBP fusions covering the SRC-1 interacting domain were analyzed for interactions with ^35S-labeled full-length RAC3, SRC-1 and RAC3-AD (FIGS. 3A, B and C). […]

RAC3: transcriptional coactivator of steroid/nuclear receptors, protein of about 1417 amino acids (SEQ ID NO:2); RAC3.1 is the two-hybrid clone, amino acids 401–1204
interaction with RXR (RXR (full-length hRXRα)): ligand-dependent manner | interaction with TR (TR (LBD) of hTRβ): ligand-dependent manner | interaction with CBP fragments C and D (CBP): interacts strongly
